From US20210246195A1 come the findings set out here.

Broadly, the Kd is the free concentration of one partner at which half of the binding sites on the other are occupied at equilibrium, for simple one-to-one binding.

Where a chain is given by its changes, count along the chain named.

Sequences and labels used below:
B1: PA15P1D05 (antibody, human IgG1, V domains shown)
VH: QVHLVESGGGVVQPGRSLGLSCVASGFTFNYYAIHWVRQAPGKGLEWVAVVSFDGNIIYYADSVKGRFNISRDNSKNTVNLQMNSLRPDDTAVYYCVRDGEYCSGGNCYWGDFDHWGQGSLVTVSP
VL: EIVLTQSPATLSLSPGERATLSCRASQSISSEYLTWFQQKPGQAPRLLIYGAFNRATGIPDRFSGSGSGTDFTLTISSLEPEDFAVYYCQQYANWWTFGQGTKVEIK
B2: PA15P1D12 (antibody, human IgG1, V domains shown)
VH: B1 VH with V23A, P88A, H115Y, S120T
VL: B1 VL with A9G
B3: PA13P1H08 variant rCDR2-N (antibody, human IgG1, V domains shown)
VH: QVQLVNSGGGVVQPGRSLRLSCVASGFTFSTFGIHWVRQAPGKGLEWVAVISYDGSNKESADSVKGRFTPSRDNSKNTVYLQMNNLRVEDTAVYYCAKVLDYSRYSYYYGMDVWGQGTTVIVSS
VL: EIVLTQSPGTLSLSPGGRGTLSCRTSQTINNAHLAWYQHKPGQAPRLLIYGSSERATGVPDRFSGSGSGSDFTLTISSLEAEDFAVYYCQHYGRSPPYTFGPGTKLDIK
B4: PA13P1H08 variant rCDR1-N (antibody, human IgG1, V domains shown)
VH: B3 VH with T31S, F32Y, Y53N, S56E, N57K, K58S
VL: B3 VL
B5: PA13P1H08 variant rFWRs-N (antibody, human IgG1, V domains shown)
VH: QVQLVESGGGVVQPGRSLRLSCAASGFTFSTFGMHWVRQAPGKGLEWVAVISNDGEKSYYADSVKGRFTISRDNSKNTLYLQMNSLRAEDTAVYYCAKVLDYSRYSYYYGMDVWGQGTTVTVSS
VL: B3 VL
B6: PA12P3D08 (antibody, human IgG1, V domains shown)
VH: QVQLVESGGGVVQPGKSLRLSCAASAFTFRRFAMHWVRQAPGKGLEWVAVISDNGLREDYEDSVKGRFTISRDNSQNTLYLQMNGLRAEDTAVYYCAKVLDYNEYSLYFGMDVWGQGTTVTVSS
VL: EVVLTQSPATLSLSPGERATLSCRTSQAISNNFLAWYQQRPGQPPRLLIYASSRRATDTPDRFTGSGSGTDFTLTITRLEPEDFAVYFCQYYSDSPPYTFGPGTKLEIK
B7: PA12P1C07 (antibody, human IgG1, V domains shown)
VH: B6 VH with V5E, A23V, R30K, Q76K, N77D, G85S, A88P, V93I, N103S, T121L
VL: EIVLTQSPAILSLSPGDRATLSCRTSQTVNSNFLAWYQQKPGQAPRLLIYGASRRAIDIPDRFTGSGSGTEFTLTIARLEPEDFAVYSCQHYSDSPPYTFGQGTKLEIK

Sequence of Ara h 2 (purified natural peanut allergen) (Arachis hypogaea) (Q6PSU2 22-172): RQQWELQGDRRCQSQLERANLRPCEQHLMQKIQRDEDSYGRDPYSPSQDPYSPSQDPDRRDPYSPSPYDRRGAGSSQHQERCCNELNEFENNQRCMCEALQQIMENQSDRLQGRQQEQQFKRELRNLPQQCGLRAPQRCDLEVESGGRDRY

One experiment concerns the target Ara h 2 (purified natural peanut allergen) (Arachis hypogaea) (UniProt Q6PSU2). The experiment is described as follows: biolayer interferometry. (Biolayer interferometry detects binding as a change in optical thickness at a sensor tip.)
As to B1, the Kd was under 1 nM.
On the same count and under the same terms, to B2 belongs under 1 nM.

For a further experiment the target is unchanged. The experiment is described as follows: not named there (biolayer interferometry in Example 1).
B3 displayed a dissociation constant Kd of under 1 nM.

The next experiment shares this target. Kind of experiment: BLI, antibody on anti-human IgG Fc sensors, Ara h 2 as analyte, top 6 nM.
Consider B1, for which the Kd came out at 0.54 nM.
Turning to B2, the Kd is 0.65 nM. This Kd and that of the molecule before are within 1.5-fold of each other.
Same read-out and setting: to B4 belongs 0.016 nM; to B3, 0.008 nM.
B5 displayed a Kd of 0.039 nM. Against the preceding molecule, the Kd is about 4.9-fold higher.
With B6, the Kd is 0.014 nM.
As to B7, the Kd was found to be 0.017 nM. This Kd and that of the molecule before are within 1.5-fold of each other.
